Laboratory results as given in patent US20090156483A1 (IPSEN PHARMA S A S, published 2009).
*1 amine or outer side, *2 acyl side, *3 side chain or, on linkers, in order; H or OH if unused. Where no end group is shown, it is not given here. [ ]: non-standard residue; d: D form. The star is where a group is joined. Glu(NH-hexyl) = N5-hexyl-L-glutamine, CCCCCCNC(=O)CC[C@H](N[*:1])C(=O)[*:2]; Biotin = O=C1N[C@H]2[C@H](CS[C@H]2CCCCC(=O)*)N1; Myristoyl = CCCCCCCCCCCCCC(=O)*; Octanoyl = CCCCCCCC(=O)*; Aib = CC(C)(N)C(=O)O

Target: T1, human GH secretagogue receptor (human, UniProt Q92847 1-366)
T1 construct: whole, on cells; the Ca2+ assay used the whole cells; also called hGHS-R; ghrelin receptor
Assay: radioligand competition, (125I)ghrelin on membranes of CHO-K1 cells expressing hGHS-R
Procedure: Membranes for radioligand binding studies can be and were prepared by homogenization of the foregoing CHO-K1 cells expressing the human recombinant GHS receptor in about 20 ml of ice-cold 50 mM Tris-HCl with a Brinkman Polytron® (Brinkman®, Westbury, N.Y., U.S.A.) at setting 6 for about 15 seconds. The homogenates were washed twice by centrifugation (39,000 g/10 minutes) and the final pellets were resuspended in about 50 mM Tris-HCl containing 2.5 mM MgCl₂ and 0.1% bovine serum albumin (BSA). For the selected assay, aliquots of approximately 0.4 ml were incubated with 0.05 nM (¹²⁵I)ghrelin (˜2000 Ci/mmol; Perkin Elmer Life Sciences@, Boston, Mass., U.S.A.) with and without 0.05 ml of unlabeled competing test peptide. After approximately 60 minutes at 4° C., the bound (¹²⁵I)ghrelin was separated from the free ghrelin by rapid filtration through GF/C filters (available from Brandel®, Gaithersburg, Md., U.S.A.) which were pre-soaked in 0.5% polyethyleneimine/0.1% BSA. The filters were then washed 3 times with 5-ml aliquots of ice-cold 50 mM Tris-HCl and 0.1% BSA. The bound radioactivity trapped on the filters was counted by gamma spectrometry (using a spectrometer from Wallace LKB®, Gaithersburg, Md., U.S.A.). Specific binding was determined by subtracting (¹²⁵I)ghrelin bound in the presence of 1000 nM ghrelin (available from Bachem®, Torrence, Calif., U.S.A.) from the total (¹²⁵I)ghrelin bound.
A selection of the preferred embodiments was tested using the receptor binding assay discussed above and the results are reported in Table 2 presented below.

T1 sequence (Q92847 whole entry): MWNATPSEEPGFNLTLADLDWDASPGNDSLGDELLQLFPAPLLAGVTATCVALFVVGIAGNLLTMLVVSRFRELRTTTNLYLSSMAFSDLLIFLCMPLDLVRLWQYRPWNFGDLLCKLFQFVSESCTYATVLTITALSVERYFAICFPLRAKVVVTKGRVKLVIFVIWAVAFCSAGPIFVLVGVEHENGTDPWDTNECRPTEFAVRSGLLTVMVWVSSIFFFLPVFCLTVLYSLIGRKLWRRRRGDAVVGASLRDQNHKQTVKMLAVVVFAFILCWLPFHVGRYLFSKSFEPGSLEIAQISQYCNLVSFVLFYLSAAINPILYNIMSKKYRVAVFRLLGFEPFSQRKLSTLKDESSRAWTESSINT

Binder | Ki [nM]
GXEFLSPXHQRVQQRKESKKPPAKLQPR (N-terminal acetyl (Ac-Gly at 1); Aib at 2 and 8; Glu(NH-hexyl) at 3 and 17; C-terminal amide, Synthetic ghrelin analog; calculated MW 3448.16, found 3447.98) [(Ac-Gly^1,Aib^2,8,Glu(NH-hexyl)^3,17)hGhrelin(1-28)-NH2] | 2.94
Ac-G[Aib][Glu(NH-hexyl)]FLSPEH[Aib]RVQQRK[Glu(NH-hexyl)]SKKPPAKLQPR-NH2 (SMILES CCCCCCNC(=O)CC[C@H](NC(=O)[C@H](CCCCN)NC(=O)[C@H](CCCNC(=N)N)NC(=O)[C@H](CCC(N)=O)NC(=O)[C@H](CCC(N)=O)NC(=O)[C@@H](NC(=O)[C@H](CCCNC(=N)N)NC(=O)C(C)(C)NC(=O)[C@H](Cc1c[nH]cn1)NC(=O)[C@H](CCC(=O)O)NC(=O)[C@@H]1CCCN1C(=O)[C@H](CO)NC(=O)[C@H](CC(C)C)NC(=O)[C@H](Cc1ccccc1)NC(=O)[C@H](CCC(=O)NCCCCCC)NC(=O)C(C)(C)NC(=O)CNC(C)=O)C(C)C)C(=O)N[C@@H](CO)C(=O)N[C@@H](CCCCN)C(=O)N[C@@H](CCCCN)C(=O)N1CCC[C@H]1C(=O)N1CCC[C@H]1C(=O)N[C@@H](C)C(=O)N[C@@H](CCCCN)C(=O)N[C@@H](CC(C)C)C(=O)N[C@@H](CCC(N)=O)C(=O)N1CCC[C@H]1C(=O)N[C@@H](CCCNC(=N)N)C(N)=O, Synthetic ghrelin analog; calculated MW 3449.14, found 3449.20; also called #146) [(Ac-Gly^1,Aib^2,10,Glu(NH-hexyl)^3,17)hGhrelin(1-28)-NH2] | 0.99
GXEFLSPEHQRVQQRKESKKPPAKLQPR (N-terminal acetyl (Ac-Gly at 1); Aib at 2; Glu(NH-hexyl) at 3 and 17; C-terminal amide, Synthetic ghrelin analog; calculated MW 3492.17, found 3492.00) [(Ac-Gly^1,Aib^2,Glu(NH-hexyl)^3,17)hGhrelin(1-28)-NH2] | 1.68
[Aib][Aib][Glu(NH-hexyl)]FLSPEH[Aib]RVQQRK[Glu(NH-hexyl)]SKKPPAKLQPR-NH2 (N-terminus assumed; SMILES CCCCCCNC(=O)CC[C@H](NC(=O)[C@H](CCCCN)NC(=O)[C@H](CCCNC(=N)N)NC(=O)[C@H](CCC(N)=O)NC(=O)[C@H](CCC(N)=O)NC(=O)[C@@H](NC(=O)[C@H](CCCNC(=N)N)NC(=O)C(C)(C)NC(=O)[C@H](Cc1c[nH]cn1)NC(=O)[C@H](CCC(=O)O)NC(=O)[C@@H]1CCCN1C(=O)[C@H](CO)NC(=O)[C@H](CC(C)C)NC(=O)[C@H](Cc1ccccc1)NC(=O)[C@H](CCC(=O)NCCCCCC)NC(=O)C(C)(C)NC(=O)C(C)(C)N)C(C)C)C(=O)N[C@@H](CO)C(=O)N[C@@H](CCCCN)C(=O)N[C@@H](CCCCN)C(=O)N1CCC[C@H]1C(=O)N1CCC[C@H]1C(=O)N[C@@H](C)C(=O)N[C@@H](CCCCN)C(=O)N[C@@H](CC(C)C)C(=O)N[C@@H](CCC(N)=O)C(=O)N1CCC[C@H]1C(=O)N[C@@H](CCCNC(=N)N)C(N)=O, Synthetic ghrelin analog; calculated MW 3435.16, found 3435.00; also called #70) [(Aib^1,2,10,Glu(NH-hexyl)^3,17)hGhrelin(1-28)-NH2] | 0.63
G[Aib][Glu(NH-hexyl)]FLSPEH[Aib]RVQQRK[Glu(NH-hexyl)]SKKPPAKLQPR-NH2 (N-terminus assumed; SMILES CCCCCCNC(=O)CC[C@H](NC(=O)[C@H](CCCCN)NC(=O)[C@H](CCCNC(=N)N)NC(=O)[C@H](CCC(N)=O)NC(=O)[C@H](CCC(N)=O)NC(=O)[C@@H](NC(=O)[C@H](CCCNC(=N)N)NC(=O)C(C)(C)NC(=O)[C@H](Cc1c[nH]cn1)NC(=O)[C@H](CCC(=O)O)NC(=O)[C@@H]1CCCN1C(=O)[C@H](CO)NC(=O)[C@H](CC(C)C)NC(=O)[C@H](Cc1ccccc1)NC(=O)[C@H](CCC(=O)NCCCCCC)NC(=O)C(C)(C)NC(=O)CN)C(C)C)C(=O)N[C@@H](CO)C(=O)N[C@@H](CCCCN)C(=O)N[C@@H](CCCCN)C(=O)N1CCC[C@H]1C(=O)N1CCC[C@H]1C(=O)N[C@@H](C)C(=O)N[C@@H](CCCCN)C(=O)N[C@@H](CC(C)C)C(=O)N[C@@H](CCC(N)=O)C(=O)N1CCC[C@H]1C(=O)N[C@@H](CCCNC(=N)N)C(N)=O, Synthetic ghrelin analog; calculated MW 3407.10, found 3407.20; also called #58) [(Aib^2,10,Glu(NH-hexyl)^3,17)hGhrelin(1-28)-NH2] | 0.4
GSS(Octanoyl)FLSPEHQRVQQRKK(Biotin)SKKPPAKLQPR-NH2 (N-terminus assumed; SMILES CCCCCCCC(=O)OC[C@H](NC(=O)[C@H](CO)NC(=O)CN)C(=O)N[C@@H](Cc1ccccc1)C(=O)N[C@@H](CC(C)C)C(=O)N[C@@H](CO)C(=O)N1CCC[C@H]1C(=O)N[C@@H](CCC(=O)O)C(=O)N[C@@H](Cc1c[nH]cn1)C(=O)N[C@@H](CCC(N)=O)C(=O)N[C@@H](CCCNC(=N)N)C(=O)N[C@H](C(=O)N[C@@H](CCC(N)=O)C(=O)N[C@@H](CCC(N)=O)C(=O)N[C@@H](CCCNC(=N)N)C(=O)N[C@@H](CCCCN)C(=O)N[C@@H](CCCCNC(=O)CCCC[C@@H]1SC[C@@H]2NC(=O)N[C@@H]21)C(=O)N[C@@H](CO)C(=O)N[C@@H](CCCCN)C(=O)N[C@@H](CCCCN)C(=O)N1CCC[C@H]1C(=O)N1CCC[C@H]1C(=O)N[C@@H](C)C(=O)N[C@@H](CCCCN)C(=O)N[C@@H](CC(C)C)C(=O)N[C@@H](CCC(N)=O)C(=O)N1CCC[C@H]1C(=O)N[C@@H](CCCNC(=N)N)C(N)=O)C(C)C, Synthetic ghrelin analog; calculated MW 3595.27, found 3594.90; also called #78) [(Lys(biotinyl)^17)hGhrelin(1-28)-NH2] | 0.07

Now from value to binder:

Ki [nM] | Binder
1.28 | Ac-G[Aib][Glu(NH-hexyl)]FLSPEH[Aib]RVQQRKK(Biotin)SKKPPAKLQPR-NH2 (SMILES CCCCCCNC(=O)CC[C@H](NC(=O)C(C)(C)NC(=O)CNC(C)=O)C(=O)N[C@@H](Cc1ccccc1)C(=O)N[C@@H](CC(C)C)C(=O)N[C@@H](CO)C(=O)N1CCC[C@H]1C(=O)N[C@@H](CCC(=O)O)C(=O)N[C@@H](Cc1c[nH]cn1)C(=O)NC(C)(C)C(=O)N[C@@H](CCCNC(=N)N)C(=O)N[C@H](C(=O)N[C@@H](CCC(N)=O)C(=O)N[C@@H](CCC(N)=O)C(=O)N[C@@H](CCCNC(=N)N)C(=O)N[C@@H](CCCCN)C(=O)N[C@@H](CCCCNC(=O)CCCC[C@@H]1SC[C@@H]2NC(=O)N[C@@H]21)C(=O)N[C@@H](CO)C(=O)N[C@@H](CCCCN)C(=O)N[C@@H](CCCCN)C(=O)N1CCC[C@H]1C(=O)N1CCC[C@H]1C(=O)N[C@@H](C)C(=O)N[C@@H](CCCCN)C(=O)N[C@@H](CC(C)C)C(=O)N[C@@H](CCC(N)=O)C(=O)N1CCC[C@H]1C(=O)N[C@@H](CCCNC(=N)N)C(N)=O)C(C)C, Synthetic ghrelin analog; calculated MW 3591.32, found 3591.50; also called #166) [(Ac-Gly^1,Aib^2,10,Glu(NH-hexyl)^3,Lys(biotinyl)^17)hGhrelin(1-28)-NH2]
0.16 | G[Aib]S(Octanoyl)FLSPEHQRVQQRKK(Myristoyl)SKKPPAKLQPR-NH2 (N-terminus assumed; SMILES CCCCCCCCCCCCCC(=O)NCCCC[C@H](NC(=O)[C@H](CCCCN)NC(=O)[C@H](CCCNC(=N)N)NC(=O)[C@H](CCC(N)=O)NC(=O)[C@H](CCC(N)=O)NC(=O)[C@@H](NC(=O)[C@H](CCCNC(=N)N)NC(=O)[C@H](CCC(N)=O)NC(=O)[C@H](Cc1c[nH]cn1)NC(=O)[C@H](CCC(=O)O)NC(=O)[C@@H]1CCCN1C(=O)[C@H](CO)NC(=O)[C@H](CC(C)C)NC(=O)[C@H](Cc1ccccc1)NC(=O)[C@H](COC(=O)CCCCCCC)NC(=O)C(C)(C)NC(=O)CN)C(C)C)C(=O)N[C@@H](CO)C(=O)N[C@@H](CCCCN)C(=O)N[C@@H](CCCCN)C(=O)N1CCC[C@H]1C(=O)N1CCC[C@H]1C(=O)N[C@@H](C)C(=O)N[C@@H](CCCCN)C(=O)N[C@@H](CC(C)C)C(=O)N[C@@H](CCC(N)=O)C(=O)N1CCC[C@H]1C(=O)N[C@@H](CCCNC(=N)N)C(N)=O, Synthetic ghrelin analog; calculated MW 3577.35, found 3577.2; also called #217) [(Aib^2,Lys(myristyl)^17)hGhrelin(1-28)-NH2]
24.4 | Ac-[Aib][Aib][Glu(NH-hexyl)]FLSPEH[Aib]RVQQRK[Glu(NH-hexyl)]SKKPPAKLQPR-NH2 (SMILES CCCCCCNC(=O)CC[C@H](NC(=O)[C@H](CCCCN)NC(=O)[C@H](CCCNC(=N)N)NC(=O)[C@H](CCC(N)=O)NC(=O)[C@H](CCC(N)=O)NC(=O)[C@@H](NC(=O)[C@H](CCCNC(=N)N)NC(=O)C(C)(C)NC(=O)[C@H](Cc1c[nH]cn1)NC(=O)[C@H](CCC(=O)O)NC(=O)[C@@H]1CCCN1C(=O)[C@H](CO)NC(=O)[C@H](CC(C)C)NC(=O)[C@H](Cc1ccccc1)NC(=O)[C@H](CCC(=O)NCCCCCC)NC(=O)C(C)(C)NC(=O)C(C)(C)NC(C)=O)C(C)C)C(=O)N[C@@H](CO)C(=O)N[C@@H](CCCCN)C(=O)N[C@@H](CCCCN)C(=O)N1CCC[C@H]1C(=O)N1CCC[C@H]1C(=O)N[C@@H](C)C(=O)N[C@@H](CCCCN)C(=O)N[C@@H](CC(C)C)C(=O)N[C@@H](CCC(N)=O)C(=O)N1CCC[C@H]1C(=O)N[C@@H](CCCNC(=N)N)C(N)=O, Synthetic ghrelin analog; calculated MW 3477.19, found 3477.40; also called #158) [(Ac-Aib^1,Aib^2,10,Glu(NH-hexyl)^3,17)hGhrelin(1-28)-NH2]
214 | GXSFLSPXHQRVQQRKESKKPPAKLQPR (Aib at 2 and 8; Ser at 3 (plain, not acylated); Glu(NH-hexyl) at 17; C-terminal amide, Synthetic ghrelin analog; calculated MW 3280.91 (fits an unacylated Ser 3), found 3281.60; also called #219) [(Aib^2,8,Ser^3,Glu(NH-hexyl)^17)hGhrelin(1-28)-NH2]
